The values that follow come from patent US20060134709A1.

In assay [1] the target is FcγRIIB-Fc fusion protein (human) (UniProt P31994). As to the kind of experiment: BIAcore: ch4-4-20 captured on BSA-FITC, FcγRIIB-Fc at two concentrations, separate fits, average of the two.
Assay [2] deals with soluble monomeric FcγRIIIA-linker-AVITAG (human) (UniProt P08637). As to the kind of experiment: ELISA.
The target in assay [3] is FcγRIIB-Fc fusion protein (human) (UniProt P31994). Kind of assay: ELISA.
The target is the same in assay [4]. As to the kind of experiment: BIAcore.
Assay [5] deals with soluble monomeric FcγRIIIA-linker-AVITAG (human) (UniProt P08637). Kind of assay: BIAcore.
Assay [6] has as its target FcγRIIB-Fc fusion protein (human) (UniProt P31994). As to the kind of experiment: BIAcore. This is another data set of the same source.
The target of assay [7] is FcγRIIIA 158V (human) (UniProt P08637). As to the kind of experiment: BIAcore.
The target in assay [8] is soluble FcγRIIB (human) (UniProt P31994). As to the kind of experiment: ELISA.
The target of assay [9] is soluble monomeric FcγRIIIA-linker-AVITAG (human) (UniProt P08637). Kind of assay: ELISA of FcγRIIIA binding; OD listed beside the sensorgrams.
Assay [10] concerns the target FcγRIIB-Fc fusion protein (human) (UniProt P31994). As to the kind of experiment: ELISA of FcγRIIB-Fc binding; OD listed beside the sensorgrams.
The target of assay [11] is soluble monomeric FcγRIIIA-linker-AVITAG (human) (UniProt P08637). Kind of assay: BIAcore: ch4-4-20 captured on BSA-FITC, FcγRIIIA at 200 nM and 800 nM, separate fits, average of the two concentrations.
For assay [12], the target named is monomeric human IgG. Kind of assay: ELISA.
The target in assay [13] is monomeric human IgG. As to the kind of experiment: direct ELISA on plate-coated human IgG, detection with DJ130c and anti-mouse peroxidase.
Assay [14] addresses soluble FcγRIIIA tetrameric complex (human) (UniProt P08637). Kind of assay: FACS titration of tetramer, 1.4 to 0.0006 µM.
Assay [15] concerns the target C1q. As to the kind of experiment: BIAcore; 2B6 captured on soluble CD32B (2bLAvi) on a CM-5 chip, C1q injected.

Sequence of C1q (P02745 23-245, chain 1 of 3): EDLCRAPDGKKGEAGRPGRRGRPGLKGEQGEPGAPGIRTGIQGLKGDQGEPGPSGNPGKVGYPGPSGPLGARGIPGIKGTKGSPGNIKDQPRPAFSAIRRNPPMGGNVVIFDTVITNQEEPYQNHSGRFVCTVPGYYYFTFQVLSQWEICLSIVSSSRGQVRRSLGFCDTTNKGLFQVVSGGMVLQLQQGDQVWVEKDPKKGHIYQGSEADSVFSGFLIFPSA
Sequence of C1q (P02746 28-253, chain 2 of 3, further chain): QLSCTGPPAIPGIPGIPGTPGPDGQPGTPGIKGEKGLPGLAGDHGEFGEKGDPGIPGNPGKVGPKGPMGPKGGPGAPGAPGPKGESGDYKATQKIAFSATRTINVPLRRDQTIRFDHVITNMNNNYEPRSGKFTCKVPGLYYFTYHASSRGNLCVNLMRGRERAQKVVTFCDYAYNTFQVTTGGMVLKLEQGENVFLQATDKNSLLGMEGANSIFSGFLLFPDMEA
Sequence of C1q (P02747 29-245, chain 3 of 3, further chain): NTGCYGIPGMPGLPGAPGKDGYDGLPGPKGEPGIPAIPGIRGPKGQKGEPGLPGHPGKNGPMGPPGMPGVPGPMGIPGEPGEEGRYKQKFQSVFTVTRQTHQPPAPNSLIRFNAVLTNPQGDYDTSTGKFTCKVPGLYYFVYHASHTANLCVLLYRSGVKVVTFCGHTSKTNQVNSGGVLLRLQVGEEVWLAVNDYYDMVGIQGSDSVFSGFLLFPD
Sequence of FcγRIIIA 158V (human) (P08637 17-208 F176V): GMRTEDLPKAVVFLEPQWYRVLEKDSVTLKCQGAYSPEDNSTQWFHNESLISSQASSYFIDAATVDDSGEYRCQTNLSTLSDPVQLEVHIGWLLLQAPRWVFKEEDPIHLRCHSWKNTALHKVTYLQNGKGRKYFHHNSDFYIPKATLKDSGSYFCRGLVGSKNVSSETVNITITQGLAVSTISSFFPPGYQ
Sequence of FcγRIIB-Fc fusion protein (human) (P31994 43-217): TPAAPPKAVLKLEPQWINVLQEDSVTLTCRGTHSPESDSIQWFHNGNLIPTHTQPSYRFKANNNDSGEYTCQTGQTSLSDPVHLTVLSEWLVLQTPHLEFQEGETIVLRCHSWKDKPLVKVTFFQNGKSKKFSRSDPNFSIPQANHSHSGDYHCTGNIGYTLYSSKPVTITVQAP
Sequence of soluble monomeric FcγRIIIA-linker-AVITAG (human) (P08637 17-203 F176V limits assumed, form in doubt): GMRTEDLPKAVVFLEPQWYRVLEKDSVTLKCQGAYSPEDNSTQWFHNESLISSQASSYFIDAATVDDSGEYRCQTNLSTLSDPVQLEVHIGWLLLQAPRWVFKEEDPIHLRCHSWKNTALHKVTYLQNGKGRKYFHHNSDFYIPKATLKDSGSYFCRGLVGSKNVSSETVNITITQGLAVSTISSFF
Sequence of soluble FcγRIIIA tetrameric complex (human) (P08637 17-203 F176V limits assumed, form in doubt, one chain of several): as the sequence (P08637 17-203 F176V limits assumed, form in doubt) above

For the substance chimeric 4-4-20 antibody, wild type Fc, the koff in assay [1] was found to be 0.0847 s⁻¹; in [4], 0.085 s⁻¹; in assay [6], 0.094 s⁻¹. The ELISA, OD worked out at 0.5 OD in [2] and 0.4 OD in assay [3]. For the same substance, the Kd in [4] amounted to 61.4 nM; in assay [5], 198 nM; in [6], 94 nM.

In the case of ch4-4-20 K248M (antibody), the Koff WT/Mut in [6] is 1.03; in assay [7] it was 0.977. Moreover, the dissociation constant (Kd) in assay [6] (Fc variant MGFc 37) was determined as 100 nM; in assay [6] (Fc variant MGFc 40), 110 nM. Moreover, the results for the koff in assay [6] (Fc variant MGFc 37) and in [6] (Fc variant MGFc 40) were 0.091 s⁻¹ and 0.09 s⁻¹, respectively.

Regarding ch4-4-20 K261N, K210M, P396L (antibody), the fold increase vs wt in assay [2] amounted to 2 x; in assay [8], 4.2 x. The values for the Koff WT/Mut in assay [6] and in assay [7] were 0.85 and 1.29, respectively.

As for ch4-4-20 K288N, A330S, P396L (antibody), the ELISA, OD in assay [2] was 1 OD; in assay [3], 1.2 OD. Besides, the dissociation constant (Kd) was 41.3 nM in assay [4] and 33.4 nM in assay [6].

In the case of ch4-4-20 F243L, R255L (antibody), the equilibrium dissociation constant (Kd) in assay [1] is 82.3 nM; in [11], 91.8 nM; in assay [5], 90 nM; in assay [6], 74.7 nM. Also, the koff came out at 0.1 s⁻¹ in [1], 0.073 s⁻¹ in assay [11], 0.075 s⁻¹ in assay [5] and 0.09 s⁻¹ in assay [6]. The substance also gave a fold vs wt in [2] of 1 x. Further, the ELISA, OD in [9] was found to be 0.37 OD; in assay [10], 0.1 OD.

With ch4-4-20 E293V, Q295E, A327T (antibody), in assay [2], the fold increase vs wt was determined as 0.4 x and the fold vs wt is 1.4 X. In [5], this substance displayed an equilibrium dissociation constant (Kd) of 195 nM and a dissociation rate constant (koff) of 0.198 s⁻¹. Also, in [6], the Kd came to 86 nM, the Koff WT/Mut worked out at 1.3 and the dissociation rate constant (koff) was 0.074 s⁻¹. In assay [7], this substance came in with a Koff WT/Mut of 0.86.

For the substance “ch4-4-20 K288R, T307A, K344E, P396L (antibody)”, the fold increase vs wt in [2] was 4.1 x; in assay [8] it was 2.3 x. For the same substance, the results for the Koff WT/Mut in assay [6] and in assay [7] were 0.89 and 1.27, respectively.

On to ch4-4-20 K392T, P396L (antibody), for which, in assay [2], the fold increase vs wt turned out to be 4.5 x and the fold vs wt was determined as 4.5 X. Further, in [8], the fold increase vs wt came out at 2.5 x and the fold vs wt came out at 2.5 X. Moreover, in assay [5], the Kd was found to be 84 nM and the koff was found to be 0.104 s⁻¹. In assay [6], this substance displayed a Kd of 50 nM, a Koff WT/Mut of 2.3 and an off-rate constant (koff) of 0.041 s⁻¹. In assay [7], this substance came in with a Koff WT/Mut of 1.64.

For “soluble FcγRIIIA tetrameric complex (from UniProt P08637 17-203) (receptor)”, the fold avidity vs monomeric receptor in [12] lay in the range of 8 to 10 fold. This substance registered an EC50 (read off the curve) in assay [13] of 1 µg/mL.

As for ch4-4-20 K246I, K334N (antibody), the Kd in assay [4] stood at 45.3 nM; in [11] it was 100 nM. The ELISA, OD in assay [9] is 0.75 OD.

As to ch4-4-20 Mut 6 (S219V) (antibody), the ELISA, OD in [2] turned out to be 0.6 OD; in [3] it was 0.35 OD. Besides, the equilibrium dissociation constant (Kd) in assay [4] amounted to 66.5 nM; in assay [5], 264 nM. In addition, the koff is 0.06 s⁻¹ in assay [4], 0.173 s⁻¹ in assay [11] and 0.175 s⁻¹ in assay [5]. The kon in assay [5] came to 667000 M⁻¹ s⁻¹.

For the substance ch4-4-20 P217S, P396L (antibody), the fold increase vs wt in assay [2] is 1.6 x; in assay [8], 4.5 x. For the same substance, the figures for the Koff WT/Mut in [6] and in assay [7] were 0.95 and 1.17, respectively.

Take “Aga2p-CH1-CH3 fusion (pYD-CH1), wild type Fc on yeast”: the Kd in assay [14] was 6 nM.

ch4-4-20 F372Y (antibody): the results for the ELISA, OD in assay [3] and in assay [9] were 1.55 OD and 1 OD, respectively. The Kd in assay [11] was 84.8 nM.

Take ch4-4-20 H268N, P396L (antibody): in assay [2], the fold increase vs wt was 2.2 x and the fold vs wt was 2.2 X. In addition, in assay [8], the fold increase vs wt was 4.5 x and the fold vs wt turned out to be 4.5 X. In [5], this substance returned a Kd of 178 nM and a koff of 0.159 s⁻¹. In assay [6], this substance gave a Kd of 46.6 nM, a Koff WT/Mut of 1.04 and a koff of 0.036 s⁻¹. In [7], this substance had a Koff WT/Mut of 0.92.

In [2], ch4-4-20 K334E, R292L (antibody) had an ELISA, OD of 1.25 OD. Also, in [10], the ELISA, OD amounted to 0.1 OD. In assay [5], this substance had a Kd of 70.2 nM, a koff of 0.105 s⁻¹ and an on-rate (kon) of 1.43e+06 M⁻¹ s⁻¹. Also, in assay [6], the equilibrium dissociation constant (Kd) amounted to 108 nM and the koff is 0.107 s⁻¹.

ch4-4-20 K326E (antibody): the values for the ELISA, OD in [2] and in assay [3] were 1 OD and 1.25 OD, respectively. The figures for the fold increase vs wt in assay [2] and in [8] were 2 x and 3.5 x, respectively. The dissociation constant (Kd) in [4] is 51.7 nM; in assay [5] it was 92 nM. Besides, the koff in assay [4] was found to be 0.043 s⁻¹; in assay [5], 0.112 s⁻¹. This substance also had an on-rate constant (kon) in [5] of 1.23e+06 M⁻¹ s⁻¹.

As for 2B6 (panel FIG. 34B-2) (antibody), in assay [15], the Kd came out at 7 nM and the dissociation rate constant (koff) came to 0.06 s⁻¹.

For the substance ch4-4-20 K288M, K334E (antibody), in assay [2], the ELISA, OD amounted to 1.1 OD; the fold increase vs wt was determined as 3 x; the fold vs wt turned out to be 3 X. The substance further gave an ELISA, OD in [10] of 0.13 OD. In assay [5], this substance had a Kd of 75.4 nM, a dissociation rate constant (koff) of 0.1 s⁻¹ and an on-rate constant (kon) of 1.37e+06 M⁻¹ s⁻¹. For the same substance, in [6], the Kd was determined as 95.6 nM and the off-rate (koff) turned out to be 0.089 s⁻¹.

Turning to 2B6 (panel FIG. 34B-1) (antibody), the off-rate constant (koff) in [15] was found to be 0.13 s⁻¹.
